Substrate: O=[N+]([O-])c1ccc(O[C@H]2O[C@H](CO)[C@@H](O)[C@H](O)[C@@H]2O)cc1
Test: purified protein
Format: biochemical, Enterococcus faecalis
Conditions: apparent, MES 100 mM, pH 6.0, CaCl2 4 mM, 37 °C, 10 min

B1: EfMan-I (Enterococcus faecalis V583) (protein)
chain: MNIQAIDTRHGTANQHSFSNGNCLPYTGVPFGMNFYAPQTTDQKGSWWFHPEDRTFQGYRVTHQPSPWMGDFSHLLMTPVSGSLSELSLFHAQSSYRPEESLFSPVEINLTQLRYQITSQLIPSMYGGILTIDYQQKDNHLLLTLPGRYQVKQLDDHQVAVKVINYSGCEDPDFSFYFVLHFEQPLTKWFAPSSGEDGKILLSFGNIAQQVVHFSSSFISEKQAQLNLAREISLRSTEMLQQGIADWHNYFDRLKVTHENPEHTKTFYHTLYRTFLFPQTFYELDENQQPIHYDTFSQTVRPGVLYTNNGFWDTYKTVYPLFSLIAQEKYEEMLEGFLNSYNETGFLPKWLSPDERGLMPGTLIDAVIADAAVKKIRPDLMPQFLEAMKKGATQQSERENYGRQGTLDYLKYGYVPSTYHESVNHTLDYAYSDFCISQVAKTLNDSETATFYRQQALNYQQLFNPETGFMQAKDTEGNFRPDFLDIRWGKDYAEGSAWQSSFAVYQDFAGLIKLYGSELAFEKKLIQLCNQAPNFNVEGYGFEIHEMSEMAAIDFGQLAISNQPSFHYPFLFSYIGKPEMAQPLLKQLMQTFDASPTGYPGDEDNGSMSAWYIFNSLGFYPVTPGTGEYVIGMPLVQTAEVKLSNGKQLTIQTSPNKVQQQFIHEIQLNQEKHTAPYFTHQELLNGGTLDYQLGIVPNPQNTAERPFSLSTEK
  Km: 11 ± 1.7 mM
  kcat: 0.49 ± 0.03 s⁻¹
  kcat/Km: 47 M⁻¹ s⁻¹
